Reference: patent publication US9192657B2

Biological target: T1, PAR-1 N-terminal tail peptide (TR33-62) (artificial)
T1 sequence (peptide): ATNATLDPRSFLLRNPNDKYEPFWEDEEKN

- PAR-1 peptide (TR33-62) cleavage (% rwt-APC), catalytic efficiency by HPLC: 88 % rwt-APC
B1: KKK191-193AAA-APC (enzyme)
chain: ANSFLEELRHSSLERECIEEICDFEEAKEIFQNVDDTLAFWSKHVDGDQCLVLPLEHPCASLCCGHGTCIDGIGSFSCDCRSGWEGRFCQREVSFLNCSLDNGGCTHYCLEEVGWRRCSCAPGYKLGDDLLQCHPAVKFPCGRPWKRMEKKRSHLKRDTEDQEDQVDPRLIDGKMTRRGDSPWQVVLLDSAAALACGAVLIHPSWVLTAAHCMDESKKLLVRLGEYDLRRWEKWELDLDIKEVFVHPNYSKSTTDNDIALLHLAQPATLSQTIVPICLPDSGLAERELNQAGQETLVTGWGYHSSREKEAKRNRTFVLNFIKIPVVPHNECSEVMSNMVSENMLCAGILGDRQDACEGDSGGPMVASFHGTWFLVGLVSWGEGCGLLHNYGVYTKVSRYLDWIHGHIRDKEAPQKSWAP
